Here are results for one molecule from patent US20060263802A1 (CRUCELL HOLLAND B V, published 2006).

Common to all, as to assay: PEPSCAN ELISA, looped 15-mer, 10 ug/ml
Test [1] has as its target looped peptide … (rabies virus strain ERA).
For test [2] the target is unchanged. The source holds these as a separate data set.
For test [3], the target named is looped peptide […] (rabies virus strain ERA).
Test [4] has the same target. The source holds these as a separate data set.
In test [5] the target is looped peptide … (rabies virus strain ERA). This is another data set of the same source.
Test [6] has the same target. The source holds these as a separate data set.
Test [7] has the same target. This is another data set of the same source.
For test [8] the target is unchanged. The source holds these as a separate data set.
For test [9] the target is unchanged. The source holds these as a separate data set.
For test [10], the target named is looped peptide […] (rabies virus strain ERA). This is another data set of the same source.
Test [11] has as its target looped peptide … (rabies virus strain ERA). The source holds these as a separate data set.
Test [12] has as its target looped peptide […] (rabies virus strain ERA). The source holds these as a separate data set.
The target is the same in test [13]. This is another data set of the same source.
Test [14] has the same target. This is another data set of the same source.
In test [15] the target is looped peptide … (rabies virus strain ERA). This is another data set of the same source.

B1: human monoclonal antibody CRJB (antibody, V domains shown)
VH: QITLKETGPTLVKPTQTLTLTCTFSGFSLSTSGVGVGWIRQPPGKALEWVTLIYWDDDKRYSPSLENRVTIRKDTSKNQVALTMTNMDPLDTGTYYCAHRQHISSFPWFDSWGQGTLVTVSS
VL: SYVLTQPPSVSVAPGKTARINCGGNNIEYRSVHWYQQKSGQAPVAVIYDNSDRPSGIPERFSGSKSGNTATLTISRVEAGDEADYYCQVWDISSDVVFGGGTKLTVLG
As for B1, the OD value in [1] is 72; in [2], 60; in the test with looped peptide […] [3] it was 186; with looped peptide […] [4] it was 156; in [5] it was 79; in test [6], 74. The OD value in [7] came to 79; in [8], 63; in test [9], 92; with looped peptide […] [10], 87; in [11], 68; in the test with looped peptide […] [12], 206. Further, the OD value with looped peptide […] [13] is 71; with looped peptide […] [14], 132; in [15], 76.
